± gives the uncertainty stated by the source.
B1: Pre-mRNA-processing factor 40 homolog B, residues 274 to 332; numbered along this chain, Q6NWY9 (parent)
chain: SNREKAKQAFKELLRDKAVPSNASWEQAMKMVVTDPRYSALPKLSEKKQAFNAYKAQRE

Variants of: B1
Assay: abundance fitness (aPCA) (normalised: wild type 0, dead -1); higher = more abundant; growth selection in yeast, the domain comes from the species named
Details: Homo sapiens

Row | Variant | abundance fitness
1 | F10V | -0.511 ± 0.075
2 | F10Y | -0.282 ± 0.16
3 | F10W | -0.869 ± 0.11
4 | K30D | -0.411 ± 0.12
5 | K30C | -0.423 ± 0.16
6 | K30E | 0.067 ± 0.12
7 | K30A | -0.061 ± 0.078
8 | W25F | 0.249 ± 0.12
9 | W25L | -0.242 ± 0.087
10 | W25D | -0.114 ± 0.1
11 | W25G | -0.161 ± 0.055
12 | W25C | -0.109 ± 0.12
13 | W25R | -0.189 ± 0.057
14 | W25T | -0.149 ± 0.093
15 | W25I | -0.251 ± 0.18
16 | W25H | -0.347 ± 0.22
17 | W25K | -0.221 ± 0.14
18 | W25Y | -0.18 ± 0.12
19 | W25V | -0.291 ± 0.073
20 | W25Q | -0.36 ± 0.3
21 | W25S | -0.13 ± 0.075
22 | W25E | -0.095 ± 0.092
23 | W25A | -0.244 ± 0.082
24 | W25P | -0.237 ± 0.11

Row | Variant | abundance fitness
25 | W25N | 0.038 ± 0.12
26 | V19K | -0.807 ± 0.13
27 | V19D | -0.295 ± 0.13
28 | V19P | -0.477 ± 0.11
29 | V19N | -0.598 ± 0.19
30 | V19Q | -0.383 ± 0.2
31 | V19A | -0.612 ± 0.085
32 | V19H | -0.938 ± 0.23
33 | V19W | -0.589 ± 0.083
34 | V19M | -0.32 ± 0.095
35 | V19I | -0.462 ± 0.13
36 | V19F | -0.932 ± 0.14
37 | V19Y | -0.992 ± 0.15
38 | V19C | -0.583 ± 0.11
39 | V19L | -0.606 ± 0.084
40 | V19E | -0.375 ± 0.096
41 | V19T | -0.231 ± 0.1
42 | V19R | -0.633 ± 0.065
43 | V19G | -0.479 ± 0.056
44 | V19S | -0.533 ± 0.078
45 | E12Y | -0.817 ± 0.27
46 | E12S | -0.283 ± 0.083
47 | E12F | -0.718 ± 0.18
48 | E12L | -0.632 ± 0.091

Row | Variant | abundance fitness
49 | E12M | -0.705 ± 0.14
50 | E12A | -0.231 ± 0.075
51 | E12K | -0.469 ± 0.11
52 | E12V | -0.705 ± 0.077
53 | E12Q | -0.249 ± 0.1
54 | E12W | -1.15 ± 0.17
55 | E12D | -0.152 ± 0.12
56 | E12T | -0.301 ± 0.13
57 | E12H | -0.297 ± 0.17
58 | E12N | -0.128 ± 0.14
59 | E12R | -0.62 ± 0.073
60 | E12C | -0.602 ± 0.13
61 | E12G | -0.491 ± 0.061
62 | E12P | -0.988 ± 0.14
63 | M29P | -0.103 ± 0.1
64 | M29V | -0.114 ± 0.063
65 | M29F | -0.295 ± 0.17
66 | M29G | -0.237 ± 0.058
67 | M29C | -0.203 ± 0.1
68 | M29R | -0.078 ± 0.059
69 | M29A | -0.125 ± 0.075
70 | M29D | -0.097 ± 0.1
71 | M29L | -0.216 ± 0.093
72 | M29K | 0.166 ± 0.094

Row | Variant | abundance fitness
73 | M29Q | 0.047 ± 0.11
74 | M29E | -0.102 ± 0.1
75 | M29S | -0.136 ± 0.086
76 | M29T | -0.282 ± 0.088
77 | M29Y | -0.014 ± 0.14
78 | P20R | -0.592 ± 0.053
79 | P20A | -0.451 ± 0.066
80 | P20N | -0.587 ± 0.13
81 | P20I | -0.753 ± 0.14
82 | P20M | -0.549 ± 0.083
83 | P20F | -1.59 ± 0.38
84 | P20V | -0.578 ± 0.062
85 | P20K | -0.654 ± 0.12
86 | P20G | -0.391 ± 0.05
87 | P20S | -0.506 ± 0.066
88 | P20E | -0.364 ± 0.064
89 | P20H | -0.789 ± 0.16
90 | P20C | -0.59 ± 0.095
91 | P20L | -0.641 ± 0.072
92 | P20T | -0.421 ± 0.083
93 | P20Y | -0.641 ± 0.14
94 | P20D | -0.395 ± 0.14
95 | R15F | 0.019 ± 0.13
96 | R15K | -0.129 ± 0.16

Row | Variant | abundance fitness
97 | R15I | -0.052 ± 0.18
98 | R15A | 0.001 ± 0.089
99 | R15H | 0.064 ± 0.32
100 | R15E | 0.046 ± 0.14
101 | R15N | 0.015 ± 0.15
102 | R15W | -0.106 ± 0.1
103 | R15C | -0.171 ± 0.11
104 | R15P | -0.593 ± 0.12
105 | R15D | -0.238 ± 0.16
106 | R15G | -0.211 ± 0.084
107 | R15V | -0.001 ± 0.087
108 | R15L | -0.097 ± 0.077
109 | R15Y | -0.091 ± 0.18
110 | R15S | -0.214 ± 0.1
111 | R15Q | -0.062 ± 0.14
112 | R15M | 0.219 ± 0.2
113 | K11A | 0.145 ± 0.084
114 | K11Y | -0.155 ± 0.24
115 | K11R | -0.03 ± 0.067
116 | K11G | -0.16 ± 0.07
117 | K11L | 0.159 ± 0.1
118 | K11W | 0.082 ± 0.1
119 | K11N | -0.137 ± 0.16
120 | K11F | 0.061 ± 0.12

Row | Variant | abundance fitness
121 | K11H | -0.17 ± 0.32
122 | K11D | -0.386 ± 0.17
123 | K11T | 0.217 ± 0.11
124 | K11Q | 0.343 ± 0.13
125 | K11I | 0.233 ± 0.12
126 | K11S | -0.001 ± 0.1
127 | K11P | -0.322 ± 0.13
128 | K11C | 0.061 ± 0.11
129 | K11E | 0.004 ± 0.15
130 | K17F | -0.146 ± 0.099
131 | K17R | -0.107 ± 0.061
132 | K17E | -0.437 ± 0.097
133 | K17P | -0.573 ± 0.13
134 | K17L | -0.605 ± 0.089
135 | K17M | -0.038 ± 0.11
136 | K17D | -0.72 ± 0.13
137 | K17T | -0.429 ± 0.091
138 | K17V | -0.525 ± 0.068
139 | K17Q | -0.213 ± 0.13
140 | K17C | -0.38 ± 0.12
141 | K17G | -0.599 ± 0.075
142 | K17S | -0.365 ± 0.071
143 | K17H | -0.239 ± 0.2
144 | K17Y | -0.189 ± 0.18

Row | Variant | abundance fitness
145 | K17I | -0.651 ± 0.15
146 | K17A | -0.106 ± 0.072
147 | K17N | -0.07 ± 0.15
148 | E26V | -0.364 ± 0.083
149 | E26G | -0.274 ± 0.067
150 | E26M | -0.325 ± 0.19
151 | E26I | -0.547 ± 0.15
152 | E26F | -0.729 ± 0.16
153 | E26D | -0.019 ± 0.12
154 | E26W | -0.598 ± 0.11
155 | E26Y | -0.581 ± 0.14
156 | E26H | -0.237 ± 0.22
157 | E26A | -0.31 ± 0.091
158 | E26P | -0.149 ± 0.099
159 | E26L | -0.362 ± 0.088
160 | E26T | -0.006 ± 0.13
161 | E26K | -0.169 ± 0.13
162 | E26R | -0.719 ± 0.093
163 | E26Q | -0.412 ± 0.16
164 | E26S | -0.229 ± 0.089
165 | L14D | -0.504 ± 0.11
166 | L14A | -0.452 ± 0.069
167 | L14H | -0.573 ± 0.2

Source: the Human Domainome abundance scans (Beltran et al. 2025)
